According to patent publication US20220332804A1 (CSL INNOVATION, published 2022):

How the values were obtained:
Assay in all cases: SPR, KD relative to WT C2;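 also: biacore SPR at 37 °C, anti-C2 mAbs captured on anti-human IgG chips with alanine or serine point mutants of C2 as analyte, KD from 1:1 fit compared with wild-type C2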
human C2 G677A = molecular target: T1, human C2 G677A (human, UniProt P06681 21-752)
T1 sequence: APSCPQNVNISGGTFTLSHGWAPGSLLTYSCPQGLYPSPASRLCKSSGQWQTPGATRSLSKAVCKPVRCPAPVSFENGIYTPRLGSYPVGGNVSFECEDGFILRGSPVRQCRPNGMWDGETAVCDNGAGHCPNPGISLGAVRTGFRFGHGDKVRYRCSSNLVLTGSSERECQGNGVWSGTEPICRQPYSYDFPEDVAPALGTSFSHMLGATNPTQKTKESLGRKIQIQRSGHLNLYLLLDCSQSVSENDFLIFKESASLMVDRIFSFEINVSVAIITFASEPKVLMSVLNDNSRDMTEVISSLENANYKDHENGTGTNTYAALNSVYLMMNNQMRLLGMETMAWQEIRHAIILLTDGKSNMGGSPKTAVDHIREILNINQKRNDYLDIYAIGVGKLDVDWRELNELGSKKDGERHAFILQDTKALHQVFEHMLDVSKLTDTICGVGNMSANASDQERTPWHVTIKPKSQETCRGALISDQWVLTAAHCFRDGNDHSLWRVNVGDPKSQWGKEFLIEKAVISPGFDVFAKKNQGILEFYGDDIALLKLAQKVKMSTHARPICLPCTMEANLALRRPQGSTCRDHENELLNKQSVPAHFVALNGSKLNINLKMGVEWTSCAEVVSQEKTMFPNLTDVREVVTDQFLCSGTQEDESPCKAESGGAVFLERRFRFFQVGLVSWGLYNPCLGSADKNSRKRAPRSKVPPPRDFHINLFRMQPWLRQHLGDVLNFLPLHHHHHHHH

human C2 R519A = molecular target: T2, human C2 R519A (human, UniProt P06681 21-752)
T2 sequence: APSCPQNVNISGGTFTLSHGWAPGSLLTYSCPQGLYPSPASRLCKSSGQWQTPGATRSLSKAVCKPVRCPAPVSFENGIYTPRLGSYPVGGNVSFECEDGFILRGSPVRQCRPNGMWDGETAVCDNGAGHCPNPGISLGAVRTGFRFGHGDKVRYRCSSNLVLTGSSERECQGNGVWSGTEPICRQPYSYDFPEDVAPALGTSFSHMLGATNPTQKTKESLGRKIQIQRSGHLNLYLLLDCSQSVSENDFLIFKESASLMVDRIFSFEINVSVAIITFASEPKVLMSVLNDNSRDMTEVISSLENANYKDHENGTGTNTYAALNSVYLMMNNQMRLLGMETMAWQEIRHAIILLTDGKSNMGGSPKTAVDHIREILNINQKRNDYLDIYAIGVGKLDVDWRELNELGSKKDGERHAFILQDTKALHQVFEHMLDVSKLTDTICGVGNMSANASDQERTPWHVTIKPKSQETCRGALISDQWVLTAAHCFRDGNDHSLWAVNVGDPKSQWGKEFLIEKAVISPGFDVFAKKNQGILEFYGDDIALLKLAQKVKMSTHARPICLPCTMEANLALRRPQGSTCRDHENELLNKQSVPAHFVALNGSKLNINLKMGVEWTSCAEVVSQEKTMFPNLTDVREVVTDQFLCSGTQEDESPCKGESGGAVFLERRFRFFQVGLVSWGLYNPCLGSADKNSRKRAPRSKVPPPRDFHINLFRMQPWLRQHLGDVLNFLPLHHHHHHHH

human C2 L439A = molecular target: T3, human C2 L439A (human, UniProt P06681 21-752)
T3 sequence: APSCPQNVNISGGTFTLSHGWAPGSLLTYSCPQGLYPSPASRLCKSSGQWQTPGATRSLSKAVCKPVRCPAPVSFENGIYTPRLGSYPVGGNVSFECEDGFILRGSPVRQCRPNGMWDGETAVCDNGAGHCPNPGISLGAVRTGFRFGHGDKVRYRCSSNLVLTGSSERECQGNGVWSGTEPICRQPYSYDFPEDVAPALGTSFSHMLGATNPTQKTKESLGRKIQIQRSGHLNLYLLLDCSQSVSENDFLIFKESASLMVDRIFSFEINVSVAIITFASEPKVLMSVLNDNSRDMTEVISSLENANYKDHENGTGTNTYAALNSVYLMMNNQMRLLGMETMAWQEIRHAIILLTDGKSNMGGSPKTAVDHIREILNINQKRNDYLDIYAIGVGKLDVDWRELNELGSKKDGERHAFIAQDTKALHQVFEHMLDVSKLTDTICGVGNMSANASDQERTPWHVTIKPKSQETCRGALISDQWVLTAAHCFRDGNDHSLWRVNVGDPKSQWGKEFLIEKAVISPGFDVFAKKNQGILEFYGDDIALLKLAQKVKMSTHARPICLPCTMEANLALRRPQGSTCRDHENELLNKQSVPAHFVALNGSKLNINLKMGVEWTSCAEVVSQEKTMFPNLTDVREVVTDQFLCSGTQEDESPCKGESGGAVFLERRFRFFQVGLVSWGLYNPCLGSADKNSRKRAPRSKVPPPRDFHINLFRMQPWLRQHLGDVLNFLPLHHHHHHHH

human C2 S278A = molecular target: T4, human C2 S278A (human, UniProt P06681 21-752)
T4 sequence: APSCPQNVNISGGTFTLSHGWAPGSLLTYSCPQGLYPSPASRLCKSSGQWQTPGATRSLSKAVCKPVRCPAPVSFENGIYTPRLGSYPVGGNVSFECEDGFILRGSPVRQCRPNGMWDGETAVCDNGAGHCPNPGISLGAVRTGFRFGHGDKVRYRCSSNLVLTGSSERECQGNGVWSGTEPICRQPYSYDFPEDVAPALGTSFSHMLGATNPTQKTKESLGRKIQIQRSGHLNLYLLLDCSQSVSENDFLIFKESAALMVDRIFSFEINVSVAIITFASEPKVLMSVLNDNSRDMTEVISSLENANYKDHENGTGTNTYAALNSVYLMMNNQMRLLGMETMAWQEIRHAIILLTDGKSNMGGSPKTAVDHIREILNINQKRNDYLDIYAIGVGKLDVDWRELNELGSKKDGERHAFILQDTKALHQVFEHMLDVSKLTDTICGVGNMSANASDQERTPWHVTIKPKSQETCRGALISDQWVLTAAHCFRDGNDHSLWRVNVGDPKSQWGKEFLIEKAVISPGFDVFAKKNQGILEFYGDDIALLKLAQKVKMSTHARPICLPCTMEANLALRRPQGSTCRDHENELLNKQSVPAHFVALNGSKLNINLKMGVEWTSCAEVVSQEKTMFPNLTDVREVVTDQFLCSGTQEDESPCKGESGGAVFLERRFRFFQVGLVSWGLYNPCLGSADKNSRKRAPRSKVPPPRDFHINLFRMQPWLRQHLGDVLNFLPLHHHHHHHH

B1: RF16-242 (antibody, human IgG4 S228P, lambda, V domains shown)
VH: EVQLLQSGAEVKKPGESLKISCKGSGYSFTSYWIGWVRQMPGKGLEWMGIIYPGDSDTRYSPSFQGQVTISADKSISTAYLQWSSLKASDTAMYYCARRGHYGDYFDYWGQGTLVTVSS
VL: SYELTQPPSVSVSPGQTARITCSGDALPKKYAYWYHQKSGQAPVLVIYEDRRRPSEIPERFSGSSSGTMATLTITGAQVEDEGVYFCYSRDRAGNQRVFGGGTQLTVLG
notes: pH-dependent anti-C2 antibody from a phage display library
- Fold diff (human C2 G677A): 1 fold
- Fold diff (human C2 R519A): 1 fold
- Fold diff (human C2 L439A): 24 fold
- Fold diff (human C2 S278A): 1 fold
